Experimental findings from publication PMC6395706, “Unique properties of PTEN-L contribute to neuroprotection in response to ischemic-like stress” (Scientific Reports, 2019) are described below.

For assay [1], the target named is endogenous PTEN-L (mouse (endogenous in primary cortical neurons)). Nature of the assay: proximity ligation; Duolink PLA with anti-GAB2 and anti-PTEN-L antibodies in fixed, permeabilised primary neurons at DIV 9 treated with 50 µM glutamate for 60 min; proximities below 40 nm.
Another assay has as its target T1, PTEN-L:EGFP (human, UniProt P60484-2 1-576).
T1 construct: human PTEN-L (PTENα), the long translational variant of PTEN with 173 additional N-terminal residues (aa 1-173 unique, aa 174-576 shared with PTEN); gene synthesis with an ATG start codon replacing the alternative CTG start; PCR primers run from the start codon to the last codon before the spacer; A Gly-Gly-Thr-Gly-Gly spacer precedes the C-terminal EGFP; Cloned in the lentiviral transfer vector …
Described as above. As to conditions: partners not purified.

Take “GRB2-associated-binding protein 2 (from UniProt Q9Z1S8 1-665) (natural protein)”: the fold decrease of PLA interaction complexes, glutamate against PBS in assay [1] was determined as 3.98 fold.

B1: GRB2-associated-binding protein 2 (natural protein, UniProt Q9Z1S8 1-665, looked up)
chain: MSGGGGDDVVCTGWLRKSPPEKKLRRYAWKKRWFILRSGRMSGDPDVLEYYKNEHSKKPLRIINLNLCEQVDAGLTFNKKELQDSFVFDIKTSERTFYLVAETEADMNKWVQSICQICGFNQAEESTDSLRNLSSASHGPRSSPAEFSSSQHLLRERKSSAPSHSSQPTLFTFEPPVSSHMQPTLSTSAPQEYLYLHQCISRRTENARSASFSQGTRQKSDTAVQKLAQSNGHCINGVGGQVHGFYSLPKPSRHNTEFKDSTYDLPRSLASHGHTKSSLTGSETDNEDVYTFKMPSNTLCRELGDLLVDNMDVPTTPLSAYQIPRTFTLDKNHNAMTVATPGDSAIAPPPRPPKPSQAETSQWGSIQQRPPISENSRSVAATIPRRNTLPAMDNSRLHRASSCETYEYPARGSGESASWSAEPPGKTAVGRSNSASSDDNYVPMNPGSSTLLAMERPGDNSQSVYIPMSPGPHHFDPLGYPSTALPIHRGPSRGSEIQPPPVNRNLKPDRKAKPTPLDLRNNTVIDELPFKSPVTKSWSRINHTFNSSSSQYCRPISTQSITSTDSGDSEENYVPMQNPVSASPVPSGTNSPAPKKSTGSVDYLALDFQPGSPSPHRKPSTSSVTSDEKVDYVQVDKEKTQALQNTMQEWTDVRQSSEPSKGAKL
notes: also called Gab2; GAB2; source: endogenous, mouse primary cortical neurons; in cytosolic or nuclear fractions, or in fixed cells
Consider B1, for which the “fold decrease of PLA interaction complexes, glutamate against PBS” value with PTEN-L:EGFP is 4.61 fold.
